US20140112930A1 (published 2014)

What was measured:
Biotin-hBA2 = target: T1, Biotin-hBA2 (human, biotinylated (sites not given)); assay: blocking ELISA, biotin-hBA2 to hTie-2
T1 construct: hBA2 consists of two dimers; also called biotinylated hBA2; human bow-Ang2

[1] = target: T2, Full-length human Ang-1 protein conjugated to 6x histidine tag (human, UniProt Q15389 20-498, limits assumed); assay: blocking ELISA, 0.6 nM hAng-1-His to coated hTie-2-mFc
T2 construct: Bought (R&D Systems); printed as full-length; also called hAng-1 WT; Ang-1-His; not shown: 6x histidine tag
T2 sequence (looked up): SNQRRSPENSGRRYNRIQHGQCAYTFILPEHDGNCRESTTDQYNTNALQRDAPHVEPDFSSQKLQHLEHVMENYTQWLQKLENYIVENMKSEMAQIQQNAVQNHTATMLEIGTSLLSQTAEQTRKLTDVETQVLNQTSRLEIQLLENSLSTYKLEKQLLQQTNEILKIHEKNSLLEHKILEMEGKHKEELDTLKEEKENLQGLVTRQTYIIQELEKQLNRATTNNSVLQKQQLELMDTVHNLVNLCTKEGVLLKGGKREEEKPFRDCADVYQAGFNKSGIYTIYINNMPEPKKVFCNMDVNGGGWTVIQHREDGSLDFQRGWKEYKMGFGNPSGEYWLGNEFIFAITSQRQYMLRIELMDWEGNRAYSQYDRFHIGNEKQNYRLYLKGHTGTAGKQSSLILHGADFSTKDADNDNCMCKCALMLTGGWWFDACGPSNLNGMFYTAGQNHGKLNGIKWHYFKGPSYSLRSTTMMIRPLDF
Experimental: (§1) Briefly, hTie-2-mFc (a chimeric construct consisting of human Tie-2 conjugated to mouse IgG; SEQ ID NO:525) was coated onto 96-well plates at a concentration of 2 μg/ml and incubated overnight followed by washing four times in wash buffer (PBS with 0.05% Tween-20). The plate was then blocked with PBS (Irvine Scientific, Santa Ana, Calif.) containing 0.5% BSA (Sigma-Aldrich Corp., St. Louis, Mo.) for one hour at room temperature. […] The antibody/antigen mixture was then added to the plate containing hTie-2-mFc and incubated for one hour at room temperature. […] Absorbance was read at OD₄₅₀ for 0.1 sec.

[2] = target: T3, Full-length human Ang-2 protein conjugated to 6x histidine tag (human, UniProt O15123 19-496); assay: blocking ELISA, 0.6 nM hAng-2-His to coated hTie-2-mFc
T3 construct: Bought (R&D Systems); printed as full-length; also called hAng-2 WT; Ang-2-His; not shown: 6x histidine tag
T3 sequence: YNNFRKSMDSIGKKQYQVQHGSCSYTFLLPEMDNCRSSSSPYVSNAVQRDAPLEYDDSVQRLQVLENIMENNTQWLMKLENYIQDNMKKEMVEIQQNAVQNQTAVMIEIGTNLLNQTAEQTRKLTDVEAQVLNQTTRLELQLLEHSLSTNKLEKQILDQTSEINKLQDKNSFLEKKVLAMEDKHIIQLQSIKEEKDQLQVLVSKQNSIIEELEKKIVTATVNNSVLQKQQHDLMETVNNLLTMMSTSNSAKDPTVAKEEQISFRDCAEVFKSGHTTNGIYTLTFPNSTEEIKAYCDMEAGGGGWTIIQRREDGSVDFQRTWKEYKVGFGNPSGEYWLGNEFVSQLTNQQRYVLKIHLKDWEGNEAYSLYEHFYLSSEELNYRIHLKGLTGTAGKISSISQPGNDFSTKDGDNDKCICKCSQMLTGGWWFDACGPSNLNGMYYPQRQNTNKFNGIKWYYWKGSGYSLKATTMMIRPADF
Experimental: as §1

hAng-1-WT = target: T4, hAng-1-WT (human, UniProt Q15389 20-498, limits assumed); assay: SPR, 1 uM blocker premixed with 10 nM hAng-1-WT, over hTie-2-mFc surface; RU of hAng-1 bound
T4 construct: a tag is not mentioned there; also called full-length wild-type human Ang-1
T4 sequence (looked up): T2 sequence (looked up)
Experimental: In this experiment, a human Tie-2 full-length extracellular domain construct (hTie-2-mFc-ecto) was amine-coupled on a BIACORE™ chip to create a receptor coated surface. […] The equilibrated solutions were injected over the receptor surfaces at 5 μL/min for 5 minutes at 25° C.

hAng-2FD-mFc N-467-G = target: T5, hAng-2FD-mFc N-467-G (human, UniProt O15123 282-496); assay: SPR 25C, hAng-2FD-mFc captured on anti-mFc, 100 nM analyte
T5 construct: not shown: mouse Fc
T5 chain: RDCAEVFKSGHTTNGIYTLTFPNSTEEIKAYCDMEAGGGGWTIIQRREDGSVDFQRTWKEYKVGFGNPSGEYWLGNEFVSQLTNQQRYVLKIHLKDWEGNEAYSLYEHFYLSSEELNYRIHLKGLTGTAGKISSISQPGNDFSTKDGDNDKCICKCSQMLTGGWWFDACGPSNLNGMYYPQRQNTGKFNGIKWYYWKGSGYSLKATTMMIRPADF

Monkey Ang-2FD-hFc = target: T6, Monkey Ang-2FD-hFc (monkey (Macca fascicularis)); assay: blocking ELISA, 16.67 nM antibody, Ang-2FD-hFc to coated hTie-2-mFc
T6 construct: also called dimeric monkey Ang-2FD
T6 sequence (chain, as listed by the source limits assumed): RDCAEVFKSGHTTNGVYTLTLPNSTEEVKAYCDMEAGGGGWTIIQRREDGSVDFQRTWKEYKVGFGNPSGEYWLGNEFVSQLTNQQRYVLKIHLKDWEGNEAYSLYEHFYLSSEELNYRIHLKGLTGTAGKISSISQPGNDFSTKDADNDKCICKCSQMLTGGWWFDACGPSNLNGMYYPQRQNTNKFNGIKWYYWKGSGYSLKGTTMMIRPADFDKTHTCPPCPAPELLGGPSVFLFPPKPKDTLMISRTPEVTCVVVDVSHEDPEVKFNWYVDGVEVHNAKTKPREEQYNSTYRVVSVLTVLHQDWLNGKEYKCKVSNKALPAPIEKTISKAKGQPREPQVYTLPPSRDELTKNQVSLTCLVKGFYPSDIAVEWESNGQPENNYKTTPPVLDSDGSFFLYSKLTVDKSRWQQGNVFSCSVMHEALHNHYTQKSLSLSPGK

Mouse Ang-2FD-hFc = target: T7, Mouse Ang-2FD-hFc (mouse (Mus musculus)); assay: as above
T7 construct: also called dimeric mouse Ang-2FD
T7 sequence (chain, as listed by the source limits assumed): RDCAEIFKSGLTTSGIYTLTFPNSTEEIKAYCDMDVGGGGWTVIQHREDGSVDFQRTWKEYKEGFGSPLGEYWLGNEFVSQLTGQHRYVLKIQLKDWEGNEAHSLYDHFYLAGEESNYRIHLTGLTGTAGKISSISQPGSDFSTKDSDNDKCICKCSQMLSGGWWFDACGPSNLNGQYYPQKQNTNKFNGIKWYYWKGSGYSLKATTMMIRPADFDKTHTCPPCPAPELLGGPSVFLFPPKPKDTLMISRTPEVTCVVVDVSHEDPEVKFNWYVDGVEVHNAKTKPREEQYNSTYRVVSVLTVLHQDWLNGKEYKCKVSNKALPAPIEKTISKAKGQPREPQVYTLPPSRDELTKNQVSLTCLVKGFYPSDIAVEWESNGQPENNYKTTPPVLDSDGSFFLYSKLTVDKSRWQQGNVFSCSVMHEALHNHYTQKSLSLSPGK

Human Ang-2FD-hFc = target: T8, Human Ang-2FD-hFc (human); assay: as above
T8 construct: also called dimeric human Ang-2FD; human Ang-2FD protein conjugated to human IgG
T8 sequence (chain, as listed by the source limits assumed): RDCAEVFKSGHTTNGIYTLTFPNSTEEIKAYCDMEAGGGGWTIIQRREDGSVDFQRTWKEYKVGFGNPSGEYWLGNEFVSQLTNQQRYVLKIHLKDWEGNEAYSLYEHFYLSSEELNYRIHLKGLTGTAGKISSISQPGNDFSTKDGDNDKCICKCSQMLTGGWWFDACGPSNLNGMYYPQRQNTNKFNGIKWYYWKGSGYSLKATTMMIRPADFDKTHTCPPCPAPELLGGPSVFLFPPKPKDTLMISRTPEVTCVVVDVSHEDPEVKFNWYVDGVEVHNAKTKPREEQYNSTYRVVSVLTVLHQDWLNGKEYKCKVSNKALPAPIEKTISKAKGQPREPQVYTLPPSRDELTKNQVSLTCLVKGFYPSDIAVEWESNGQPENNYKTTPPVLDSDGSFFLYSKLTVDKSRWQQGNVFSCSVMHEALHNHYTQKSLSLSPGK

T1 sequence (chain, as listed by the source limits assumed): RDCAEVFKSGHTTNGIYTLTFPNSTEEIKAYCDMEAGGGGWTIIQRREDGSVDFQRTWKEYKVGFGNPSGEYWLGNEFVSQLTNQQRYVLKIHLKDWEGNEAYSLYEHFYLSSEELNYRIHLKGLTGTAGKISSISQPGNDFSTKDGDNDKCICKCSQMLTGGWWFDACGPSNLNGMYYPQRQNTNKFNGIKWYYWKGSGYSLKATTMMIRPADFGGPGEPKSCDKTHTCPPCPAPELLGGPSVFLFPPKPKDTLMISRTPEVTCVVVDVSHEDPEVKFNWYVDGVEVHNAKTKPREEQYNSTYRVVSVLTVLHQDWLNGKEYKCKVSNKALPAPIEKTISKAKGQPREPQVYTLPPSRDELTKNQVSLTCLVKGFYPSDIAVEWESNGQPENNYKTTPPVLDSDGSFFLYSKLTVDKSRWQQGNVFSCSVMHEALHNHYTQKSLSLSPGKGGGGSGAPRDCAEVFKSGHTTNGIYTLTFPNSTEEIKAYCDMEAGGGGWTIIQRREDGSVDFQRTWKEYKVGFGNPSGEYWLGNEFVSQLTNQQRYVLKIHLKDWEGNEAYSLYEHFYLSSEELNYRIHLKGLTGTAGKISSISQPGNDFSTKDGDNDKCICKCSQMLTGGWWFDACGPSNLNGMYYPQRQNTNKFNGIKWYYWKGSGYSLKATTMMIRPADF

- IC50 (Biotin-hBA2): 0.025 nM
- IC50 [1]: 187 nM
- IC50 [2]: 0.0787 nM
- RU (average) (hAng-1-WT): 57 RU
- Kd (hAng-2FD-mFc N-467-G): 0.0772 nM
- RU (hAng-2FD-mFc N-467-G): 139 RU
- T ½ (hAng-2FD-mFc N-467-G): 1010 min
- Percent Blocking of Ang-2FD Binding to Tie-2 (Monkey Ang-2FD-hFc): 96.2%
- Percent Blocking of Ang-2FD Binding to Tie-2 (Mouse Ang-2FD-hFc): 97.6%
- Percent Blocking of Ang-2FD Binding to Tie-2 (Human Ang-2FD-hFc): 97.9%
B1: H1H744N (antibody, V domains shown)
VH: QVQLVQSGVEVKKPGASVKVSCKTSGYTFSNNGFSWVRQAPGQGLEWLGWISGYNGNTNYAQKFQGRVTMTTDTSTSTAYMELRTLRSDDTAVYYCARDQDYSNFHWLDPWGQGTLVTVAS
VL: DIQMTQSPSSVSASVGDRVIITCRASQGLSSWLAWYQQKPGTAPKLLIHSASSLQTGVPSRFSGSGSGTEFALTINSLQPEDFGTYYCQQANSFPLTFGGGTRVEIK
